According to article PMC8034618:

Test system: LARP1 C-terminal fragment (extended DM15) WT (Homo sapiens)
Assay: EMSA
Conditions: m7Gppp cap; EMSA: 20 mM Tris-HCl pH 8, 150 mM NaCl, 10% glycerol, 1 mM DTT, 0.5 ug tRNA, 1 ug BSA in 10 ul; on ice 30 min; 7-8% native 0.5x TBE gel at 4 C; RNA <=200 pM

With m7G-RPS6-UTR (capped RPS6 20-mer) the Kd was 153 nM.
